Data taken from patent publication US20250218531A1 (ABSCI, published 2025).
Positions count from the first letter of the chain named.

B1: Trastuzumab HCDR3 variant ARWYYYGGYYFDV (Fab, V domains shown)
VH: EVQLVESGGGLVQPGGSLRLSCAASGFNIKDTYIHWVRQAPGKGLEWVARIYPTNGYTRYADSVKGRFTISADTSKNTAYLQMNSLRAEDTAVYYCARWYYYGGYYFDVWGQGTLVTVSS
VL: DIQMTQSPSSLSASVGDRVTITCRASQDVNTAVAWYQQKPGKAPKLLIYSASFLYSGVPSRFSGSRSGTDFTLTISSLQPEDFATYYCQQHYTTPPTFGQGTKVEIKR
B2: Trastuzumab HCDR3 variant AVTDLDGLHSYRY (Fab, V domains shown)
VH: EVQLVESGGGLVQPGGSLRLSCAASGFNIKDTYIHWVRQAPGKGLEWVARIYPTNGYTRYADSVKGRFTISADTSKNTAYLQMNSLRAEDTAVYYCAVTDLDGLHSYRYWGQGTLVTVSS
VL: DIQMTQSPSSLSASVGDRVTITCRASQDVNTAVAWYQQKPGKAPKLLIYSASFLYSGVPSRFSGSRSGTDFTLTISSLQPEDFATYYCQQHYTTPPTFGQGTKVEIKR
B3: Trastuzumab HCDR3 variant ARYWGLGGYYFDH (Fab, V domains shown)
VH: B1 VH with W99Y, Y100W, Y101G, Y102L, V109H
VL: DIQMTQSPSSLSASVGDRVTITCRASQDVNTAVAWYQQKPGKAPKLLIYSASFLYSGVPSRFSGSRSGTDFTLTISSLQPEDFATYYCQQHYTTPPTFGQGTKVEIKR
B4: Trastuzumab HCDR3 variant ARYGDGYYYYFAY (Fab, V domains shown)
VH: B1 VH with W99Y, Y100G, Y101D, Y102G, G103Y, G104Y, D108A, V109Y
VL: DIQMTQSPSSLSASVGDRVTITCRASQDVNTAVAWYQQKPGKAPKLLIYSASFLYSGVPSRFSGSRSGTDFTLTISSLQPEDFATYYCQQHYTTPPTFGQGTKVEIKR
B5: Trastuzumab HCDR3 variant TRYGGYGYYYMDY (Fab, V domains shown)
VH: B1 VH with A97T, W99Y, Y100G, Y101G, G104Y, F107M, V109Y
VL: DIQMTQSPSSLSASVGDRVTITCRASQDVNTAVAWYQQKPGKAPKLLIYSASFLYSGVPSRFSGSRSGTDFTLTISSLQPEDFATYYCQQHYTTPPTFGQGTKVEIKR
B6: Trastuzumab HCDR3 variant TRYRGPYYYYFDP (Fab, V domains shown)
VH: B1 VH with A97T, W99Y, Y100R, Y101G, Y102P, G103Y, G104Y, V109P
VL: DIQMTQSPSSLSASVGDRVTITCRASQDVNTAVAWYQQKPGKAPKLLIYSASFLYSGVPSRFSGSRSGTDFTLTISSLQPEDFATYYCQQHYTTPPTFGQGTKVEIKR
B7: Trastuzumab HCDR3 variant TRYYYYGSYHFDY (Fab, V domains shown)
VH: B1 VH with A97T, W99Y, G104S, Y106H, V109Y
VL: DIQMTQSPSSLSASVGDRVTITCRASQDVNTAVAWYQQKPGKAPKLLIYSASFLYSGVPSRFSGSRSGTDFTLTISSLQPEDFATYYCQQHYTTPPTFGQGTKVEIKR
B8: Trastuzumab HCDR3 variant ARYYGYGGYYFDY (Fab, V domains shown)
VH: B1 VH with W99Y, Y101G, V109Y
VL: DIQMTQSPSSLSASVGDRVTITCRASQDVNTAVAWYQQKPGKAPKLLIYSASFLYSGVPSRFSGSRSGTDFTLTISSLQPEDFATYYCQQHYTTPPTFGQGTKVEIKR
B9: Trastuzumab HCDR3 variant ARYWYGGYYYFDY (Fab, V domains shown)
VH: B1 VH with W99Y, Y100W, Y102G, G104Y, V109Y
VL: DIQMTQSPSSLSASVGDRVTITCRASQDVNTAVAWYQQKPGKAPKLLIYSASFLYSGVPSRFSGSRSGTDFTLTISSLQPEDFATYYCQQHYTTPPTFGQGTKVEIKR
B10: Trastuzumab HCDR3 variant ARYEAYGLYPFGY (Fab, V domains shown)
VH: B1 VH with W99Y, Y100E, Y101A, G104L, Y106P, D108G, V109Y
VL: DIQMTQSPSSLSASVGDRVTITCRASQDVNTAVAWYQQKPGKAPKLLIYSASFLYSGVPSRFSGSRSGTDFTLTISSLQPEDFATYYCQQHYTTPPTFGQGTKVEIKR
B11: Trastuzumab HCDR3 variant VRYGYGDYYYFDY (Fab, V domains shown)
VH: B1 VH with A97V, W99Y, Y100G, Y102G, G103D, G104Y, V109Y
VL: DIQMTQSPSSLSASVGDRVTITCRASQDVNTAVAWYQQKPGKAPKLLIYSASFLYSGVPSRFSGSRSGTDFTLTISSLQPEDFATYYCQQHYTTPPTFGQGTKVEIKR
B12: Trastuzumab HCDR3 variant TRYGSFHYYYFDV (Fab, V domains shown)
VH: B1 VH with A97T, W99Y, Y100G, Y101S, Y102F, G103H, G104Y
VL: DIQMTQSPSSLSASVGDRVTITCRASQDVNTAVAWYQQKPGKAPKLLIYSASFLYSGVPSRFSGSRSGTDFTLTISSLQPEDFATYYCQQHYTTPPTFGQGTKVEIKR
B13: Trastuzumab HCDR3 variant ARYDPYGFYHLDY (Fab, V domains shown)
VH: B1 VH with W99Y, Y100D, Y101P, G104F, Y106H, F107L, V109Y
VL: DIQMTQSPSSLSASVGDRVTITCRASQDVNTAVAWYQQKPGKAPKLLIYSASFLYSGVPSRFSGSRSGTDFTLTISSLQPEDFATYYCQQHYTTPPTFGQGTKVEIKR
B14: Trastuzumab HCDR3 variant TRYLHDYYYYFDY (Fab, V domains shown)
VH: B1 VH with A97T, W99Y, Y100L, Y101H, Y102D, G103Y, G104Y, V109Y
VL: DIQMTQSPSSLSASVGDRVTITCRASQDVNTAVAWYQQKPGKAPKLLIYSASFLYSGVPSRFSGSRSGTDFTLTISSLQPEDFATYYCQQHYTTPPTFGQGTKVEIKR
B15: Trastuzumab HCDR3 variant ARYGSSYYYYFDY (Fab, V domains shown)
VH: B1 VH with W99Y, Y100G, Y101S, Y102S, G103Y, G104Y, V109Y
VL: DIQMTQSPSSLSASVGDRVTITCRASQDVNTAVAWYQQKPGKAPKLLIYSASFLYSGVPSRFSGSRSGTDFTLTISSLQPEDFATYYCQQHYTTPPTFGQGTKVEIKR
B16: Trastuzumab HCDR3 variant TRYFFNGWYYFDV (Fab, V domains shown)
VH: B1 VH with A97T, W99Y, Y100F, Y101F, Y102N, G104W
VL: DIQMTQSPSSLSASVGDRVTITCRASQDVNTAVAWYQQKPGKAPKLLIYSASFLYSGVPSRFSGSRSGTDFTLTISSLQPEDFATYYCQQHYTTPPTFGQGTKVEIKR
B17: Trastuzumab HCDR3 variant TRNYYDYYYYFDY (Fab, V domains shown)
VH: B1 VH with A97T, W99N, Y102D, G103Y, G104Y, V109Y
VL: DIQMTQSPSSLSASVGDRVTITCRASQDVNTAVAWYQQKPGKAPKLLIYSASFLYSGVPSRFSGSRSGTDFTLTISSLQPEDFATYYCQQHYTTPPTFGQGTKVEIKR
B18: Trastuzumab HCDR3 variant ARYRGVWYYDFDN (Fab, V domains shown)
VH: B1 VH with W99Y, Y100R, Y101G, Y102V, G103W, G104Y, Y106D, V109N
VL: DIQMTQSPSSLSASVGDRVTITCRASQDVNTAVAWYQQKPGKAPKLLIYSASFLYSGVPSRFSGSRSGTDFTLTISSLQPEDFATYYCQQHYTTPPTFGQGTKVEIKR
B19: Trastuzumab HCDR3 variant VRYGGWGFWYFDY (Fab, V domains shown)
VH: B1 VH with A97V, W99Y, Y100G, Y101G, Y102W, G104F, Y105W, V109Y
VL: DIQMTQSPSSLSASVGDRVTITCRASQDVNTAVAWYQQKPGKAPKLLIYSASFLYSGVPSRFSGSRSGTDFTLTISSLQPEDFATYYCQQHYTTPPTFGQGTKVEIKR
B20: Trastuzumab HCDR3 variant ARYYGYGGYWYDT (Fab, V domains shown)
VH: B1 VH with W99Y, Y101G, Y106W, F107Y, V109T
VL: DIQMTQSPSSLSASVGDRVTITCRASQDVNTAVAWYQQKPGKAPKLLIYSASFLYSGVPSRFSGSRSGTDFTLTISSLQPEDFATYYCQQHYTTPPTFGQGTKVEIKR
B21: Trastuzumab HCDR3 variant ARYGGGGRYYFDY (Fab, V domains shown)
VH: B1 VH with W99Y, Y100G, Y101G, Y102G, G104R, V109Y
VL: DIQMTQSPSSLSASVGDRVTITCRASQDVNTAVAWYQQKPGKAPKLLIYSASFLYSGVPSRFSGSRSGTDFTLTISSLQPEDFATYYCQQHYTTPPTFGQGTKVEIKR
B22: Trastuzumab HCDR3 variant ARYGVYPFYYFDY (Fab, V domains shown)
VH: B1 VH with W99Y, Y100G, Y101V, G103P, G104F, V109Y
VL: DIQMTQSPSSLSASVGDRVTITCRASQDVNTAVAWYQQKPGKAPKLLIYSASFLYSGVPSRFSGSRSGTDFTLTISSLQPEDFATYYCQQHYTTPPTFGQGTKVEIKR
B23: Trastuzumab HCDR3 variant TRYEYQDYYHFDY (Fab, V domains shown)
VH: B1 VH with A97T, W99Y, Y100E, Y102Q, G103D, G104Y, Y106H, V109Y
VL: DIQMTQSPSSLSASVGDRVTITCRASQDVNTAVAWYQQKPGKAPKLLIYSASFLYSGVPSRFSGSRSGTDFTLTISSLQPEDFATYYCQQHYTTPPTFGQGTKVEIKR
B24: Trastuzumab HCDR3 variant ARYSGYGLYPYAY (Fab, V domains shown)
VH: B1 VH with W99Y, Y100S, Y101G, G104L, Y106P, F107Y, D108A, V109Y
VL: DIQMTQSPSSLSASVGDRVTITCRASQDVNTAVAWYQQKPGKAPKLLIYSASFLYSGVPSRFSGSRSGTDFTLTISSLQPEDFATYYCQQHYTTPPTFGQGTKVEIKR
B25: Trastuzumab HCDR3 variant ARYTYFGSFDFDY (Fab, V domains shown)
VH: B1 VH with W99Y, Y100T, Y102F, G104S, Y105F, Y106D, V109Y
VL: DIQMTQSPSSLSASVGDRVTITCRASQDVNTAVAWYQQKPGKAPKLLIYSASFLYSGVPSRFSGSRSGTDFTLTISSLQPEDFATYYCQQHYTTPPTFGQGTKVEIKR
B26: Trastuzumab HCDR3 variant ARWYYYGGYYFDY (Fab, V domains shown)
VH: B1 VH with V109Y
VL: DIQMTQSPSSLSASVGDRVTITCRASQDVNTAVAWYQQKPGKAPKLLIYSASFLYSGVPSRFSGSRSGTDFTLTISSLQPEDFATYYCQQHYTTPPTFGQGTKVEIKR
B27: Trastuzumab HCDR3 variant TRWLEGLSYFMDY (Fab, V domains shown)
VH: B1 VH with A97T, Y100L, Y101E, Y102G, G103L, G104S, Y106F, F107M, V109Y
VL: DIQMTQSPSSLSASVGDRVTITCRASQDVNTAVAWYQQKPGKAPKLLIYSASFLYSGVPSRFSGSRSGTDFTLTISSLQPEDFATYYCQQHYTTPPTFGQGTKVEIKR
B28: Trastuzumab HCDR3 variant ASYGLDGYYYFDV (Fab, V domains shown)
VH: B1 VH with R98S, W99Y, Y100G, Y101L, Y102D, G104Y
VL: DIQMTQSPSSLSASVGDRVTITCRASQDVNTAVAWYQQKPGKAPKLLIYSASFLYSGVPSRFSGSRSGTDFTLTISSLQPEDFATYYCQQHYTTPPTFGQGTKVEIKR
B29: Trastuzumab HCDR3 variant ARYLQLGPYYFDY (Fab, V domains shown)
VH: B1 VH with W99Y, Y100L, Y101Q, Y102L, G104P, V109Y
VL: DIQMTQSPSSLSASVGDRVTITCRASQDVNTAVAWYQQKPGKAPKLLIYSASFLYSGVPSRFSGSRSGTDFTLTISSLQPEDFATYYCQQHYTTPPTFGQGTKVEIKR
B30: Trastuzumab HCDR3 variant ARYGYYGPYYFDY (Fab, V domains shown)
VH: B1 VH with W99Y, Y100G, G104P, V109Y
VL: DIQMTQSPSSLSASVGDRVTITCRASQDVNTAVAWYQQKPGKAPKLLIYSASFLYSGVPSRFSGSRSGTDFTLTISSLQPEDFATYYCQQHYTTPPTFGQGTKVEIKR
B31: Trastuzumab HCDR3 variant TRYASGYFYAFDY (Fab, V domains shown)
VH: B1 VH with A97T, W99Y, Y100A, Y101S, Y102G, G103Y, G104F, Y106A, V109Y
VL: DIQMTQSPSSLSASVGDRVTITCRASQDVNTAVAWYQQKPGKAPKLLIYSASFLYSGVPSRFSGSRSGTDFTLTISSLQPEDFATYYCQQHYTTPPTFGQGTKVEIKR
B32: Trastuzumab HCDR3 variant VRWGVGAYYNFDY (Fab, V domains shown)
VH: B1 VH with A97V, Y100G, Y101V, Y102G, G103A, G104Y, Y106N, V109Y
VL: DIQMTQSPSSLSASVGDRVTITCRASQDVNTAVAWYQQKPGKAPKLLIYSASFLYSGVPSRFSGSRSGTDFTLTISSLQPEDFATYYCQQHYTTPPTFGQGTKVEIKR
B33: Trastuzumab HCDR3 variant ARYYGYGYYYFHY (Fab, V domains shown)
VH: B1 VH with W99Y, Y101G, G104Y, D108H, V109Y
VL: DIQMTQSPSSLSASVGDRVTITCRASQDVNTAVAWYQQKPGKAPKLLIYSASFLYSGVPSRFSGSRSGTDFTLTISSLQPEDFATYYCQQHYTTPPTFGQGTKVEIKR
B34: Trastuzumab HCDR3 variant ARYFYDYYYYFDF (Fab, V domains shown)
VH: B1 VH with W99Y, Y100F, Y102D, G103Y, G104Y, V109F
VL: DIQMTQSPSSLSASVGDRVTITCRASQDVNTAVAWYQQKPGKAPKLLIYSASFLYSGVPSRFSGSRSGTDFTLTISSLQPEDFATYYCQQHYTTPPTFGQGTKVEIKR
B35: Trastuzumab HCDR3 variant ARYYYDYYYYFDY (Fab, V domains shown)
VH: B1 VH with W99Y, Y102D, G103Y, G104Y, V109Y
VL: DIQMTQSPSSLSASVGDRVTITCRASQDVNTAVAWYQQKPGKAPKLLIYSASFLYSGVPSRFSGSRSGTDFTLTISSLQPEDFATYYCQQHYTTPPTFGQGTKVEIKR
B36: Trastuzumab HCDR3 variant VRYGSDVYYYFDI (Fab, V domains shown)
VH: B1 VH with A97V, W99Y, Y100G, Y101S, Y102D, G103V, G104Y, V109I
VL: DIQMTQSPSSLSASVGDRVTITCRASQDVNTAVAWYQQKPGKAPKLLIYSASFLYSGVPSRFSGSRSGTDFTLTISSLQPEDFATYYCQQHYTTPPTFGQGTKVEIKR
B37: Trastuzumab HCDR3 variant ATYSTYYNYAFGI (Fab, V domains shown)
VH: B1 VH with R98T, W99Y, Y100S, Y101T, G103Y, G104N, Y106A, D108G, V109I
VL: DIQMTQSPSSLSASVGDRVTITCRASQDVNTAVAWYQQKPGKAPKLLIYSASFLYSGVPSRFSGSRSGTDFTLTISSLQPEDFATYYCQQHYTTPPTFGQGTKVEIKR
B38: Trastuzumab HCDR3 variant SRYYAGGWYYFDY (Fab, V domains shown)
VH: B1 VH with A97S, W99Y, Y101A, Y102G, G104W, V109Y
VL: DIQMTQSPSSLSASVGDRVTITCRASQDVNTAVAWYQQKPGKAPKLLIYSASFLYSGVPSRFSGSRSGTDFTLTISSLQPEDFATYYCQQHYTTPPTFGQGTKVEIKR
B39: Trastuzumab HCDR3 variant ARYGSRYYYYFDY (Fab, V domains shown)
VH: B1 VH with W99Y, Y100G, Y101S, Y102R, G103Y, G104Y, V109Y
VL: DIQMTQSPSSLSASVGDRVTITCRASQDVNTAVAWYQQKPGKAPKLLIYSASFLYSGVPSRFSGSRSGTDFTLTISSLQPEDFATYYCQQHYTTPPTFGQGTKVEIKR
B40: Trastuzumab HCDR3 variant ARYGSGYYYYFDY (Fab, V domains shown)
VH: B1 VH with W99Y, Y100G, Y101S, Y102G, G103Y, G104Y, V109Y
VL: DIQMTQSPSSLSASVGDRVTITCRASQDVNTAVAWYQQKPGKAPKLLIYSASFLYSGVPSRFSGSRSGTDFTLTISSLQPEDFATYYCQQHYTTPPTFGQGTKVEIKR
B41: Trastuzumab HCDR3 variant TSIFSGGYYGLDS (Fab, V domains shown)
VH: B1 VH with A97T, R98S, W99I, Y100F, Y101S, Y102G, G104Y, Y106G, F107L, V109S
VL: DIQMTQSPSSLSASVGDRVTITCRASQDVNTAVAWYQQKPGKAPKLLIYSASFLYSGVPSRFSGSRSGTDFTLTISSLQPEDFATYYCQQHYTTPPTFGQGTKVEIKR
B42: Trastuzumab HCDR3 variant ARWYYYGRYYFDY (Fab, V domains shown)
VH: B1 VH with G104R, V109Y
VL: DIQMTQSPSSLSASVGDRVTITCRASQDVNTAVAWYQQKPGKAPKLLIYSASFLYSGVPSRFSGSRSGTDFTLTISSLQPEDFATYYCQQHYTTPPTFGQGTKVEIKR
B43: Trastuzumab HCDR3 variant VRYGFYGYYYFDY (Fab, V domains shown)
VH: B1 VH with A97V, W99Y, Y100G, Y101F, G104Y, V109Y
VL: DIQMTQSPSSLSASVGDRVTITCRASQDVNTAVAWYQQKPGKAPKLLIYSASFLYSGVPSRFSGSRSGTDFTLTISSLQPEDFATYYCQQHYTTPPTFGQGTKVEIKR
B44: Trastuzumab HCDR3 variant ARYYGYGGYYMDY (Fab, V domains shown)
VH: B1 VH with W99Y, Y101G, F107M, V109Y
VL: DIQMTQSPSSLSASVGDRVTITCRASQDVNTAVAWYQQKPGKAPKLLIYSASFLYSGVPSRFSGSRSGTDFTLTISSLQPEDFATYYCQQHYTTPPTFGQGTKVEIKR
B45: Trastuzumab HCDR3 variant ARYVGLGGYPLGY (Fab, V domains shown)
VH: B1 VH with W99Y, Y100V, Y101G, Y102L, Y106P, F107L, D108G, V109Y
VL: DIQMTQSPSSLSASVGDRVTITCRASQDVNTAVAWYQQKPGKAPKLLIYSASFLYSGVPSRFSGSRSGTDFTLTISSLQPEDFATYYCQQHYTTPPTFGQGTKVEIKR
B46: Trastuzumab HCDR3 variant ARYAHYGPYYFDF (Fab, V domains shown)
VH: B1 VH with W99Y, Y100A, Y101H, G104P, V109F
VL: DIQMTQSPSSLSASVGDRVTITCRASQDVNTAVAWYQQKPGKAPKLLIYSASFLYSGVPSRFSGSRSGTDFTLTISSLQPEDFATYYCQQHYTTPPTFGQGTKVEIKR
B47: Trastuzumab HCDR3 variant VRYGFDGSYYFDP (Fab, V domains shown)
VH: B1 VH with A97V, W99Y, Y100G, Y101F, Y102D, G104S, V109P
VL: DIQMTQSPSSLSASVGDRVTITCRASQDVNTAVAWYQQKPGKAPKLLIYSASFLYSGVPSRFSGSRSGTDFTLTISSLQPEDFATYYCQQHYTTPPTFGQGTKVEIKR
B48: Trastuzumab HCDR3 variant TRYGYGGPYWFDY (Fab, V domains shown)
VH: B1 VH with A97T, W99Y, Y100G, Y102G, G104P, Y106W, V109Y
VL: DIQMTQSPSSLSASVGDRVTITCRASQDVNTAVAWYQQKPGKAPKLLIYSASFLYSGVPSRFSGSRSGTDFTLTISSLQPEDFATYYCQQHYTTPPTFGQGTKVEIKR
B49: Trastuzumab HCDR3 variant ARYYSYGQYAFDP (Fab, V domains shown)
VH: B1 VH with W99Y, Y101S, G104Q, Y106A, V109P
VL: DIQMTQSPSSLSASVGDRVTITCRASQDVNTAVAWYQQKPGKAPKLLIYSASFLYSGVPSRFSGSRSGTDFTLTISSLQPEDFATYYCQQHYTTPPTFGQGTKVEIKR
B50: Trastuzumab HCDR3 variant ARYRGYVLYDFAY (Fab, V domains shown)
VH: B1 VH with W99Y, Y100R, Y101G, G103V, G104L, Y106D, D108A, V109Y
VL: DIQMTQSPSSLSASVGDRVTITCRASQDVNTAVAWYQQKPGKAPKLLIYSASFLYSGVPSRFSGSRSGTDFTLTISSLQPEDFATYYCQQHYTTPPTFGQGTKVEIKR
B51: Trastuzumab HCDR3 variant ARYSAYGLYDFAY (Fab, V domains shown)
VH: B1 VH with W99Y, Y100S, Y101A, G104L, Y106D, D108A, V109Y
VL: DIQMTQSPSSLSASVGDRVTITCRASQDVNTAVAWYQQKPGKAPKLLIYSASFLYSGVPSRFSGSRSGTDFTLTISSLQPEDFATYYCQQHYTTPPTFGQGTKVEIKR
B52: Trastuzumab HCDR3 variant VRYFYDGNYYFDL (Fab, V domains shown)
VH: B1 VH with A97V, W99Y, Y100F, Y102D, G104N, V109L
VL: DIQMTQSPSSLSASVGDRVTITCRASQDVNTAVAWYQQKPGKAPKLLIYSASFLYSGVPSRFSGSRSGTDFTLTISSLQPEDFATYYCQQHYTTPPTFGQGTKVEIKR

target: T1, HER2 (human epidermal growth factor receptor 2) (human, UniProt P04626 23-629); experiment: SPR
T1 construct: also called Antigen: HER2

Binder | Kd [nM] | log(KD (M))
B1 | 12.5 | -7.9
B2 | 23.3 | -7.63
B3 | 16.5 | -7.78
B4 | 7.31 | -8.14
B5 | 12 | -7.92
B6 | 12.1 | -7.92
B7 | 6.82 | -8.17
B8 | 8.05 | -8.09
B9 | 19.7 | -7.71
B10 | 3.39 | -8.47
B11 | 25.1 | -7.6
B12 | 8.73 | -8.06
B13 | 24.2 | -7.62
B14 | 22.7 | -7.64
B15 | 13.9 | -7.86
B16 | 0.94 | -9.03
B17 | 7.54 | -8.12
B18 | 14.5 | -7.84
B19 | 6.76 | -8.17
B20 | 8.19 | -8.09
B21 | 19.6 | -7.71
B22 | 27 | -7.57
B23 | 18.5 | -7.73
B24 | 17.4 | -7.76
B25 | 15.8 | -7.8
B26 | 8.29 | -8.08

Binder | Kd [nM] | log(KD (M))
B27 | 2.4 | -8.62
B28 | 19.3 | -7.71
B29 | 14.7 | -7.83
B30 | 14.3 | -7.84
B31 | 9.14 | -8.04
B32 | 12.1 | -7.92
B33 | 20.2 | -7.7
B34 | 7.11 | -8.15
B35 | 8.44 | -8.07
B36 | 19.9 | -7.7
B37 | 22.6 | -7.65
B38 | 11.8 | -7.93
B39 | 15.7 | -7.8
B40 | 15.7 | -7.8
B41 | 8.57 | -8.07
B42 | 11 | -7.96
B43 | 16.5 | -7.78
B44 | 9.91 | -8
B45 | 13.2 | -7.88
B46 | 19.8 | -7.7
B47 | 13.2 | -7.88
B48 | 14.3 | -7.84
B49 | 19.4 | -7.71
B50 | 23.1 | -7.64
B51 | 25.5 | -7.59
B52 | 22.9 | -7.64
